Assay: Activity of Mfge8 sequence lacking the second discoidin domain (test not named at the place)
Settings: mouse Mfge8 lacking the second discoidin domain

B1: SEQ ID NO:4: mouse Mfge8 sequence lacking the second discoidan domain but including all other native sequence (protein)
chain: MQVSRVLAALCGMLLCASGLFAASGDFCDSSLCLNGGTCLTGQDNDIYCLCPEGFTGLVCNETERGPCSPNPCYNDAKCLVTLDTQRGDIFTEYICQCPVGYSGIHCETETNYYNLDGEYMFTTAVPNTAVPTPAPTPDLSNNLASRCSTQLGMEGGAIADSQISASSVYMGFMGLQRWGPELARLYRTGIVNAWTASNYDSKPWIQVNLLRKMRVSGVMTQGASRAGRAEYLKTFKVAYSLDGRKFEFIQDESGGDKEFLGNLDNNSLKVNMFNPTLEAQYIKLYPVSCHRGCTLRFELLGCKPFMARYVRVLPVSWHNRITLRLELLGC
modifications: synthetic E1E2D1 mouse milk fat globule epidermal growth factor 8 (Mfge8) long construct (lacking second discoidin domain)
With B1 the “activity of the Mfge8 fragment” value was “remains active”.

— patent US10005838B2, “Milk fat globule epidermal growth factor 8 regulates fatty acid uptake” (REGENTS OF THE UNIVERSITY OF CALIFORNIA, priority 2013, dated 2018)
